Reference: patent US20230190924A1, “ANTIGEN OF ALLERGY AND EPITOPE THEREOF” (HOYU CO., LTD., priority 2017, published 2023)
Entries after “also recorded” stand apart in the source; their conditions may differ.

B1: Apolipoprotein B precursor [Spot 9] (protein, listed as Gallus gallus)
chain: MGPVRLLLLLLLLSSGVLTQEGTPENGNPGCSKDAARFKSLRKYVYLYEAETSSGITGTADSRSGSKITCKVELEVPQLCQFILRTMHCSLRETFGVDSERRAMLRKSKNSDDFANAMSKHELRFSTQDGTKVKLYPEKDEPLNVLNLKRGIISALLAPTETEENIKTISMDTVYGKCDSEVEFKSRRGSVAEDISINRNLKACDNFSPIRDYVSPVAIVKGLNIPLSTLLSSTQSCHYSIDAKKKHIRDVVCSEKHLFLPSSYKNQYGMMTEVNQTLKLEDNQRMNNRNPDGDELEEKGLALESTDAK
B2: Apolipoprotein B precursor [Spot 10] (protein, listed as Gallus gallus)
chain: LDGSTSLTRKRGLKLATALSLNNNKFLGGSHDNSISLTKKNLEASMITNAKINTPVFKMNFSQELSGNTKSKPTISSGLKVTYDFTTPKHGISAKGGVAHKLALETLTSYLSVETSTKGNIDGAIYTGNSFSGALDHEANTYLHANGVRSSLKLEANSKVDGLWNSEMKEILAVEASTSRVYAVWEHNGKNFARYTPLFTTTGSQKCKATFELAPWTVSADLQIQVTQPNSFLDTASVNQVVLMKVSPTDQKVGWKGEGQIQSLSLRHDMQLSNEKSNAKFDISGSLEGYMDFLKRINCAISKKSLWDILKLDVTTVADRKHYLNASASFIYRKSDDGYFFPMPVIR
B3: Vitellogenin-2 precursor (protein, listed as Gallus gallus)
chain: TPVLAAFLHGISNNKKTGGLQLVVYADTDSVRPRVQVFVTNLTDSSKWKLCADASVRNAHKAVAYVKWGWDCRDYKVSTELVTGRFAGHPAAQVKLEWPKVPSNVRSVVEWFYEFVPGAAFMLGFSERMDKNPSRQARMVVALTSPRTCDVVVKLPDIILYQKAVRLPLSLPVGPRIPASELQPPIWNVFAEAPSAVLENLKARCSVSYNKIKTFNEVKFNYSMPANCYHILVQDCSSELKFLVMMK

Legend:
[1] = system: IgE antibodies in serum; assay: ELISA of Fmoc-synthesised peptides with patient serum; assay type: binding, human; conditions: serum of cases having food allergies to chicken egg and soybean in combination
Description: The peptides of the aforementioned SEQ ID NOs were prepared by the Fmoc method and studied for their binding activity against IgE antibodies in serum by ELISA. On the basis of RXRXXKXX (SEQ ID NO: 329), the peptides of chicken egg RGREDKMK and soybean RFREDKEE were prepared, and their binding activity against IgE antibodies were confirmed by ELISA using the serum of cases having food allergies to chicken egg and soybean in combination.

[2] = system: IgE antibody in the serum of an egg allergic patient; assay: Immunoblotting of two-dimensional electrophoresis of chicken egg (raw egg) yolk proteins with patient serum; assay type: binding, human
Description: Identification of antigens by immunoblotting was carried out by taking all the steps up to the step of “Second-dimensional SDS-PAGE” as described above in Example 1, followed by the steps of “Transfer to membrane”, “Immunoblotting” and “Analysis” as described below.
Transfer to membrane was done using the following transfer system and transfer buffer. • Transfer system: XCell SureLock Mini-Cell and XCell II Blot Module (produced by Life Technologies) • Transfer buffer: NuPAGE Transfer Buffer (X20) (produced by Life Technologies), used in a form diluted 20-fold with milliQ water.
To be specific, proteins in the two-dimensional electrophoresis gels were transferred to a membrane (PVDF membrane) according to the following procedure.
(1) The PVDF membrane was immersed in 100% methanol followed by milliQ water, and then moved into the transfer buffer to hydrophilize the PVDF membrane.
(2) After sponge, filter paper, gels treated by second-dimensional SDS-PAGE, the hydrophilized PVDF membrane, filter paper, and sponge were put in place in this order, the transfer system was energized at a constant voltage of 30 V for one hour.
Immunoblotting of the membrane was carried out using, as a primary antibody, a serum sample from patient (patient 1) with an egg allergy or a serum sample from a non-egg-allergic subject. This egg-allergic patient was a patient diagnosed with food-dependent exercise-induced anaphylaxis (FDEIA) caused by chicken eggs.
Immunoblotting of the membrane was carried out according to the following procedure. • (1) The transferred membrane was shaken in a 5% skim milk/PBST solution (a PBS buffer containing 0.1% Tween 20 nonionic surfactant) at room temperature for one hour. • (2) The membrane was left to stand in a solution of 5% primary antibody serum in 5% skim milk/PBST at room temperature for one hour. • (3) The membrane was washed with a PBST solution (5 min.×3 times). • (4) The membrane was left to stand in a 1:5000 dilution of the secondary antibody, anti-human IgE-HRP (horseradish peroxidase), with a 5% skim milk/PBST solution at room temperature for one hour. • (5) The membrane was washed with a PBST solution (5 min.×3 times). • (6) The membrane was left to stand in Pierce Western Blotting Substrate Plus (produced by Thermo) for 5 minutes. […]
The immunoblots obtained with the serum from the egg-allergic patient were compared with those obtained with the control serum from the non-egg-allergic subject. By immunoblotting of the proteins contained in the raw yolk using the serum from the egg-allergic patient (FIG. 2), three spots were detected, which are different from the spots detected when the serum of the non-egg-allergic subject was used and different from those of the known chicken egg allergen proteins.
Identification of antigens by immunoblotting was carried out using the sera of three other egg-allergic patients (patient 2, patient 3 and patient 4) in the same manner as in Example 2. By immunoblotting of the proteins contained in the raw yolk using the serum from the egg-allergic patients (FIG. 4 for patient 2, FIG. 5 for patient 3, and FIG. 6 for patient 4), spots were detected, which are different from the spots detected when the serum of the non-egg-allergic subject was used and different from those of the known chicken egg allergen proteins. To be specific, spots 4 to 8 for patient 2, spots 9 and 10 for patient 3, and spot 11 for patient 4 were detected.

[3] = serum of egg-allergic patient 3

| Molecule | binding activity against IgE antibodies by ELISA [1] | specific reaction of serum IgE with spot in immunoblot [2, 3] | further results |
| --- | --- | --- | --- |
| RFREDKEE | patient-specific binding activity was able to be confirmed | – | – |
| RGREDKMK | patient-specific binding activity was able to be confirmed | – | – |
| B1 | – | specifically reacted; also recorded: detected | – |
| B2 | – | specifically reacted; also recorded: detected | – |
| B3 | – | – | specific reaction of serum IgE with spot in immunoblot ([2]; serum of egg-allergic patient 4): specifically reacted; also recorded: detected |
